Assay results published in US20250215411A1, “FUSION PROTEINS AND USES THEREOF” (priority 2022, published 2025).

How the values were obtained:
αvβ3 integrin = αvβ3 integrin (Homo sapiens, UniProt P05106+P06756); conditions: cited from earlier work
αvβ5 integrin = αvβ5 integrin (Homo sapiens, UniProt P06756+P18084); conditions: cited from earlier work
α5β1 integrin = α5β1 integrin (Homo sapiens, UniProt P05556+P08648); conditions: cited from earlier work
αvβ6 integrin = αvβ6 integrin (Homo sapiens, UniProt P06756+P18564); conditions: cited from earlier work
subcutaneous MB49 tumors = test: Subcutaneous syngeneic bladder cancer mouse model; type: in vivo, C57BL/6 mice
Excerpt: (§1) Studies on animal models were approved by the Institutional Animal Care and Use Committee (Institutional Animal Care and Use Committee, IACUC) and performed according to the prescribed guidelines. C57BL/6 female mice (7 weeks old, Charles River, Calco, Italy) were challenged with subcutaneous injection in the left flank of 3-5×10^5 MB49 living cells; 5 days later, 4-6 mice/group were intravenously administered with various doses of RGD-SAP or CYS-SAP diluted in sodium chloride (0.9%, i.v., 200 μl). Tumor growth was estimated by calculating the volume using the formula r1×r2×r3×4/3 π, where r1 and r2 are the longitudinal and lateral radii, and r3 is the thickness of tumors protruding from the surface of normal skin. Animals were euthanized when tumors reached 10 mm in diameter, became ulcerated or a 15% animal body weight loss was measured.

[1] = test system: 5637, RT112, RT4, U87, MDA-MB-468 cancer cell lines; test: Cell viability assay (MTT), cancer cell lines; type: cell-based, human
Experimental: (§2) Cultured cell lines (5×10^3 cells/well) were seeded in 96 wells plates and incubated for 72 h with various amounts of RGD-SAP or CYS-SAP at 37° C., 5% CO2. Cell viability was then quantified by 3-(4,5-dimethylthiazol-2-yl)-2,5-diphenyltetrazolium bromide staining (MTT) (working solution 0.5 μg/ml). After 1 h of incubation, the supernatants were removed, the formazan crystals were dissolved with dimethyl sulfoxide and the absorbance at 570 nm was measured using a microtiter plate reader. Competitive experiments were performed as described above using 100 nM of RGD-SAP or 1000 nM of CYS-SAP in the presence of 5000 nM of ACDCRGDCFCG peptide for 48 and 72 hours.
as §2, with “NGR-SAP, RGD-SAP, CgA-SAP, CYS-SAP, ATF-SAP” for “RGD-SAP”, “seed SAP” for “CYS-SAP”, “reader.” for “reader. Competitive experiments were performed as described above using 100 nM of RGD-SAP or 1000 nM of CYS-SAP in the presence of 5000 nM of ACDCRGDCFCG peptide for 48 and 72 hours.”

[2] = Toxicity in the subcutaneous model (body weight, injection site, serum biochemical parameters); type: in vivo, C57BL/6 mice
Excerpt: as §1
Blood samples were collected from the retroorbital plexus of anesthetized mice using 4% isoflurane at the end of each experiment or before animal sacrifice. Blood samples were left at room temperature for at least 30 min before being processed and then centrifuged (800×g, 10 min) for serum separation. Serum albumin, aspartate transaminase, alanine transaminase, creatinine and urea were determined by using an automated analyzer (ScilVet ABC plus and Idexx Procyte analyzers) according to the manufacturers' instructions. Standard controls were run before each determination.

[3] = test system: 5637 bladder cancer cells; test: MTT competition experiment with free RGD-4C peptide; type: cell-based, human; conditions: 0.1 μM RGD-SAP or 1 μM CYS-SAP, 5 μM peptide, 48 and 72 h
Experimental: as §2

[4] = test system: caspase 3 in 5637 and MDA-MB-468 cells; test: Caspase 3 activation (western blot); type: cell-based, human; conditions: 30 nM, 48 and 72 h
Experimental: Cells were washed twice with cold PBS, collected by scraping and centrifuged 5 min at 300 g. Cells were lysed for 30 min on ice in ice-cold buffer (50 mM Tris-HCl, pH 7.5, containing 150 mM NaCl, 2 mM NaF, 1 mM EDTA, 1 mM EGTA, 1 mM Na3VO4, 1 mM PMSF, 75 mU/ml aprotinin (Sigma-Aldrich), 1% TritonX-100 and a proteinase inhibitor Cocktail® (Sigma-Aldrich). Cell lysates were centrifuged at 10000×g at 4° C. for 10 min and the supernatants were recovered and quantified for total protein content. Equal amounts of cell protein extracts were separated by SDS-PAGE under reducing conditions unless stated otherwise. For western blot analysis, proteins were transferred onto a nitrocellulose membrane, incubated with 5% non-fat powdered milk in TBS-T (0.5% Tween-20) for 1 hour and then with the following antibodies: anti-saporin anti-serum (rabbit, 1:5000), anti-caspase 3 (rabbit, 1:2000, clone E87, Abcam), anti-beta actin (mouse, 1:10000, clone AC-15, Sigma-Aldrich). The antibody binding was detected using a secondary horseradish peroxidase conjugated antibodies (donkey anti-mouse/rabbit IgG HRP-linked, GE Healthcare) and an enhanced chemiluminescent (ECL, Merck Millipore).
To induce caspase 3 activation, cells were treated with 30 nM RGD-SAP or 2 mM DTT for 48 and 72 hours.

normal fibroblasts = test: Cell viability assay (MTT), normal fibroblasts; type: cell-based; conditions: 72 h
Experimental: as §2
as §2, with “NGR-SAP, RGD-SAP, CgA-SAP, CYS-SAP, ATF-SAP” for “RGD-SAP”, “seed SAP” for “CYS-SAP”, “reader.” for “reader. Competitive experiments were performed as described above using 100 nM of RGD-SAP or 1000 nM of CYS-SAP in the presence of 5000 nM of ACDCRGDCFCG peptide for 48 and 72 hours.”

Sequence of αvβ5 integrin (P06756 31-1048): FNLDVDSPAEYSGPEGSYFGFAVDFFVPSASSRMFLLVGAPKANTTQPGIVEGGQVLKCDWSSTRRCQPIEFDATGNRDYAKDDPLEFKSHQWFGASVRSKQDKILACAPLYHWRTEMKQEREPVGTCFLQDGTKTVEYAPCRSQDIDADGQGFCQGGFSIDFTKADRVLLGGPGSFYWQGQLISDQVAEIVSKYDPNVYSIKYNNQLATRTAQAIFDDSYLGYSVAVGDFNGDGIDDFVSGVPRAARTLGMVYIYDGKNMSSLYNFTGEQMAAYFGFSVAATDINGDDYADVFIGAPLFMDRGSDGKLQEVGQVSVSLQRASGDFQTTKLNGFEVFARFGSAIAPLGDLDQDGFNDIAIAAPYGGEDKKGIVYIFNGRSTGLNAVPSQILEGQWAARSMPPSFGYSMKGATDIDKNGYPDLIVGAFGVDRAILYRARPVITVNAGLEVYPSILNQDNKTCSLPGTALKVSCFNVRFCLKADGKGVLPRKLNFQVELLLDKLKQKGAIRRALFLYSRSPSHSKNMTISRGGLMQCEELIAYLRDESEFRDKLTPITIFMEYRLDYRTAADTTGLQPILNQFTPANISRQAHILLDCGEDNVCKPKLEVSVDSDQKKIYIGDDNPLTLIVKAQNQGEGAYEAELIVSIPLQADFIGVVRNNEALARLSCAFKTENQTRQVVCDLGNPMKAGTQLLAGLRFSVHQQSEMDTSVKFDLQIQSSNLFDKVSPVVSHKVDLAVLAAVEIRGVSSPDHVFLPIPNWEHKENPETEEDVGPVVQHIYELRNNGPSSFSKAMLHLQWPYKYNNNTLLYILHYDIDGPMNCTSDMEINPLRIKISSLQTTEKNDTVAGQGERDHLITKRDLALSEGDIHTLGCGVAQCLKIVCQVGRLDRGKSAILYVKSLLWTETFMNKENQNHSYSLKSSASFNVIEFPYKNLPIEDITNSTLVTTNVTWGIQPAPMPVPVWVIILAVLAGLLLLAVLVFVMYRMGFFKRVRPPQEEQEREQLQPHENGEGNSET
Sequence of αvβ5 integrin (P18084 24-799): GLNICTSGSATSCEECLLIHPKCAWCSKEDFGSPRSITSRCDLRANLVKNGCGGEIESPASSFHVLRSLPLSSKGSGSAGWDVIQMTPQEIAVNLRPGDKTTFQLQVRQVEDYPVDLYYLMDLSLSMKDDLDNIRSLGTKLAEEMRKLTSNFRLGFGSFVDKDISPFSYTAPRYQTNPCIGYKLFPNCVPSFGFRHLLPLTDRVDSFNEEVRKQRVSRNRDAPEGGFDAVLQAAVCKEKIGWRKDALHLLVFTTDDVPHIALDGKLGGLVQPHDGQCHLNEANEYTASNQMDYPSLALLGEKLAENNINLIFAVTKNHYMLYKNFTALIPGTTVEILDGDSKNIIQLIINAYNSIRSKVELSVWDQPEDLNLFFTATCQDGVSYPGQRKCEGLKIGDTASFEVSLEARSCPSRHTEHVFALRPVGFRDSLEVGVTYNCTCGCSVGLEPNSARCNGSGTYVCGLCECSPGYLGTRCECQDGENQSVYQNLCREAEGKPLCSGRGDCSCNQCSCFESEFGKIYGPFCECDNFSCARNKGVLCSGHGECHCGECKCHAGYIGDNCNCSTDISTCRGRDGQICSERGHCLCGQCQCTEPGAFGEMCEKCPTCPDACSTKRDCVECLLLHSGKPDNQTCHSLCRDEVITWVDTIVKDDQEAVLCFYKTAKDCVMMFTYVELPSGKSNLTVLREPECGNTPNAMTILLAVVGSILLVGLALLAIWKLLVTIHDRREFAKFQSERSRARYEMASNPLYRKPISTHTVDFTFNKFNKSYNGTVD
Sequence of αvβ3 integrin (P06756 31-1048): as the sequence (P06756 31-1048) above
Sequence of αvβ3 integrin (P05106 27-788): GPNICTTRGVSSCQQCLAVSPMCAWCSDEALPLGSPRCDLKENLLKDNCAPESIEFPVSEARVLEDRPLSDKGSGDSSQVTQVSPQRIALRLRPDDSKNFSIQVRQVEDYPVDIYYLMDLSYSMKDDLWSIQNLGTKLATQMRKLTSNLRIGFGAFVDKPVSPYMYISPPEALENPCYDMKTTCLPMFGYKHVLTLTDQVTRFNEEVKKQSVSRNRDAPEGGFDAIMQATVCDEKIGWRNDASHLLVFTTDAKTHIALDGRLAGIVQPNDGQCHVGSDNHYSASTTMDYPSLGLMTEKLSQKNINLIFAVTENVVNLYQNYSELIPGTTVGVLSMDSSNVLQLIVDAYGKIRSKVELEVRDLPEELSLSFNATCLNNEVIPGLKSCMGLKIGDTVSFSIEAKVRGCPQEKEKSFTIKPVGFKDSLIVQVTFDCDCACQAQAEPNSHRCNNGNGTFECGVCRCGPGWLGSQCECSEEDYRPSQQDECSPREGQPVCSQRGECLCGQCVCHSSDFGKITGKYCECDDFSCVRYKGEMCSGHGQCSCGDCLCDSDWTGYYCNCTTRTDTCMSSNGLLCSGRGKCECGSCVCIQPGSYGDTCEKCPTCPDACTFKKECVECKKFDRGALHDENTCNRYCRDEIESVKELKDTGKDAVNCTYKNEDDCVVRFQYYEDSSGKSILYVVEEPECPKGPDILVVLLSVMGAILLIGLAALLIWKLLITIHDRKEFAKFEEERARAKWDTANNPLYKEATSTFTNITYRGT
Sequence of αvβ6 integrin (P06756 31-1048): as the sequence (P06756 31-1048) above
Sequence of αvβ6 integrin (P18564 22-788): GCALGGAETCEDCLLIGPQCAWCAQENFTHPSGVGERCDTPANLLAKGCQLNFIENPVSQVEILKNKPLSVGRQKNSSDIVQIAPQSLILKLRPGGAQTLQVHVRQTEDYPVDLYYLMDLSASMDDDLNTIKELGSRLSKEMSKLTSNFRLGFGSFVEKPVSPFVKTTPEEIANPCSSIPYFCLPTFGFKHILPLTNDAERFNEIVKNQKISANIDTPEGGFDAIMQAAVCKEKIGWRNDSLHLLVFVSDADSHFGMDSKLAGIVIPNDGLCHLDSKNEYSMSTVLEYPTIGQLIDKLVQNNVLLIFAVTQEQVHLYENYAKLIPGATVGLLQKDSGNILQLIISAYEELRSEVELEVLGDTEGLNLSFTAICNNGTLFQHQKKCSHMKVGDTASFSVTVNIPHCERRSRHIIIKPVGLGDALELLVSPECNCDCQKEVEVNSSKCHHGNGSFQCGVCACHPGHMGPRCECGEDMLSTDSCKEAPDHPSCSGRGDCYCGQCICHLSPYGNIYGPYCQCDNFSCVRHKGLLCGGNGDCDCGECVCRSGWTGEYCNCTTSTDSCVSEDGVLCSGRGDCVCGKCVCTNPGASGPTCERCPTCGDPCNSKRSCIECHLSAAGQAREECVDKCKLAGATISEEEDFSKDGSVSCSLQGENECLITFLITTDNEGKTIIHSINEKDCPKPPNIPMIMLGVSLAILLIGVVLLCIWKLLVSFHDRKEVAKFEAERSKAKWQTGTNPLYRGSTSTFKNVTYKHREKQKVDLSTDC

## RGD-4C: ACDCRGDCFCG peptide (SEQ ID NO: 2), an αv-integrin ligand
αvβ3 integrin
  affinity value: 8.3 nM
αvβ5 integrin
  affinity value: 46 nM
α5β1 integrin
  affinity value: 244 nM
αvβ6 integrin
  affinity value: 380 nM

B1: RGD-SAP: RGD-4C (ACDCRGDCFCG) fused via GGSSRSS linker to N-terminus of saporin, C-terminal VDK and 6xHis tag; SEQ ID NO: 6 (protein)
chain: ACDCRGDCFCGGGSSRSSVTSITLDLVNPTAGQYSSFVDKIRNNVKDPNLKYGGTDIAVIGPPSKEKFLRINFQSSRGTVSLGLKRDNLYVVAYLAMDNTNVNRAYYFKSEITSAELTALFPEATTANQKALEYTEDYQSIEKNAQITQGDKSRKELGLGIDLLLTFMEAVNKKARVVKNEARFLLIAIQMTAEVARFRYIQNLVTKNFPNKFDSDNKVIQFEVSWRKISTAIYGDAKNGVFNKDYDFGFGKVRQVKDLQMGLLMYLGKPKVDKHHHHHH
Subcutaneous MB49 tumors; 0.25 mg/kg i.v., days 5, 10, 15
  effect on tumor growth: but not 0.25 mg/kg
Subcutaneous MB49 tumors; 0.5 mg/kg i.v., days 5, 10, 15
  effect on tumor growth: significant delay of tumor growth
Subcutaneous MB49 tumors; 0.75 mg/kg i.v., days 5, 10, 15
  effect on tumor growth: significant delay of tumor growth
Subcutaneous MB49 tumors; 0.75 mg/kg, Mantel-Cox log-rank, 95% CI 1.19-23.10
  survival, hazard ratio versus vehicle: 5.25
Subcutaneous MB49 tumors; 1 mg/kg i.v., end of experiment day 19, n=4
  complete tumor eradication: 1 tumor undetectable and complete eradication in one mouse
Subcutaneous MB49 tumors; 1 mg/kg i.v., three times every five days from day 5
  effect on tumor growth: marked reduction of the tumor volume in all mice
[1]; MTT, 72 h, all cancer cells
  cytotoxic effect compared to CYS-SAP: stronger cytotoxic effect
[1]; U87, highest amount of αvβ3
  sensitivity of U87 cells compared with the other cell lines: most sensitive
[2]; 1 mg/kg
  serum AST and CHE versus vehicle: significantly higher values
[2]; 1 mg/kg i.v., day 19
  body weight: loss of body weight
[2]; 1 mg/kg i.v., tails
  injection site reaction: severe necrosis in the tails
[2]; 0.25-1 mg/kg
  systemic toxicity (liver and kidney serum parameters): dose dependent and apparent only with the highest dose used
[2]; 0.75 and 0.5 mg/kg i.v., days 5, 10, 15
  body weight: without causing loss of body weight
[3]
  effect of excess free RGD-4C peptide on cytotoxic activity: significantly decreased the activity
[4]
  caspase 3 activation: caspase 3 activation was detectable as cleaved form
Normal fibroblasts
  cytotoxic effect compared to CYS-SAP: but not with normal fibroblasts
